± gives the standard deviation.

The values that follow come from the supplement of paper PMC10567573.

The nature of the data set: protein stability index of a GFP-peptide fusion (GPS, HEK-293T) (PSI 1-6); higher = more stable.
[1] abbreviates: treatment: DMSO, c terminus: a fixed tail appended.
Setting [2] is: treatment: MLN4924 1 uM, 8 h, c terminus: a fixed tail appended.
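Further: 24-mer peptide tiles fused after GFP, lentivirally expressed, FACS-sorted into six equal bins by GFP/DsRed ratio, decoded by Illumina sequencing, PSI is the read-weighted mean bin number.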

For SLQPQQQQQRQRPPRPPPRGTPPR [N4BP2L1], the protein stability index runs as follows: under setting [1], 3.81 ± 0.17; under setting [2], 4.16 ± 0.2.

The sequence LKPHLEGAAFRDHQLLEPIRDFEA [TRIM29] showed a protein stability index under setting [1] of 3.88 ± 0.31 and a protein stability index under setting [2] of 4.26 ± 0.25.

For the sequence NESSLASTLKTLLFFTALMITVPI [VMA21], the protein stability index amounted to 2.92 ± 0.19 under setting [1] and 3.07 ± 0.2 under setting [2].

Regarding RLSKELLAEYQDLTFLTKQEILLA [CIB1], the protein stability index worked out at 2.16 ± 0.17 under setting [1] and 2.11 ± 0.22 under setting [2].

With MKAHSFVRENVPRVLNSAKEKSST [SOAT1], the protein stability index reads like this: under setting [1], 4.58 ± 0.12; under setting [2], 4.57 ± 0.13.

With YLPSTEFSVSSTSRRIYRCRNCIN [IQUB], the protein stability index was found to be 2.62 ± 0.31 under setting [1] and 3.61 ± 0.38 under setting [2].

The sequence PQTVGVGRARFTTYEVRMRTNLPI [SNX12] yielded a protein stability index under setting [1] of 2.61 ± 0.22 and a protein stability index under setting [2] of 2.6 ± 0.34.

For GTYSQALNDAKRELRFLLVYLHGD [FAF2], the protein stability index was found to be 2.41 ± 0.47 under setting [1] and 2.16 ± 0.32 under setting [2].

The sequence QMNLLQKYSLLKLTALLEKYTPSN [DLC1] gave a protein stability index under setting [1] of 2.48 ± 0.55 and a protein stability index under setting [2] of 2.41 ± 0.49.

For the sequence KALQMLLSQPVTYQAFRECTLETT [BCL2L13], the protein stability index by setting is: under setting [1], 3.24 ± 0.35; under setting [2], 2.79 ± 0.42.

KKTGKSSTTALGDKQRKANESKGT [ELOA2] had a protein stability index under setting [1] of 5.26 ± 0.36 and a protein stability index under setting [2] of 5.22 ± 0.17.

In the case of PRTNQWSPVVAMTSRRSGVGLAVV [KLHL20], the protein stability index runs as follows: under setting [1], 2.47 ± 0.51; under setting [2], 2.47 ± 0.33.

AEGPNRLLYKDGFSTILHLLLGSP [LPCAT4]: the protein stability index is 2.23 ± 0.98 under setting [1] and 2.08 ± 0.29 under setting [2].

VKLGPALTPHIVQYQANKVTHTLT [PPEF2]: the protein stability index was determined as 2.35 ± 0.34 under setting [1] and 2.2 ± 0.42 under setting [2].

Consider RSRLRPRDDLDRLGVFLDYEAGVL [TRIM14], for which the protein stability index runs as follows: under setting [1], 2.47 ± 0.4; under setting [2], 2.59 ± 0.48.

Regarding ELEPLKGNFDWEAIFDAGTLGGEL [FOXJ1], the protein stability index is 4.2 ± 0.39 under setting [1] and 4.05 ± 0.46 under setting [2].

Turning to FARYPNGVVVHYFCSKEVNPADT [VPS39], the protein stability index was 2.4 ± 0.22 (treatment: DMSO, c terminus: native) and 2.27 ± 0.18 (treatment: MLN4924 1 uM, 8 h, c terminus: native).

In the case of TKEEGLALAREFSCPFFETSAAYR [RIT1], the protein stability index under setting [1] is 3.15 ± 0.29 and the protein stability index under setting [2] amounted to 3.13 ± 0.15.

For SAAGHLDVVRSLLRRGASVNRTTR [FEM1A], the protein stability index came out at 3.5 ± 0.33 under setting [1] and 3.75 ± 0.33 under setting [2].

In the case of NSEADQLGKIFDLIGLPPEDDWPR [CDK4], the protein stability index was found to be 3.7 ± 0.35 under setting [1] and 3.92 ± 0.23 under setting [2].

As for HNRYTENSLRGVILDIHFLSQADF [FUT8], the protein stability index by setting is: under setting [1], 2.55 ± 0.67; under setting [2], 2.41 ± 0.43.

Take GIAILVGSNDRVQGVISQLEDTCK [TRIM55]: the protein stability index by setting is: under setting [1], 2.3 ± 0.15; under setting [2], 2.43 ± 0.37.

For the sequence ERAIRTQPKQLIVDDLKGSLKEDL [SPRY1], the protein stability index came to 4.81 ± 0.28 under setting [1] and 4.85 ± 0.18 under setting [2].

Turning to INLPVEEFNELLSKYQLSEAQLSL [NFE2L1], the protein stability index was found to be 2.47 ± 0.44 under setting [1] and 2.51 ± 0.21 under setting [2].

As to ASKMESTIKPRRVEPVCSGLQAQI [CHCHD6], the protein stability index turned out to be 3.47 ± 0.17 under setting [1] and 3.6 ± 0.24 under setting [2].

Take LRHLSPTPSEEHMKNKNNVTEFIL [OR4A15]: the protein stability index reads like this: under setting [1], 3.27 ± 0.18; under setting [2], 3.36 ± 0.12.

AKEDGKADTKKRHTPRGHAESTSN [SMOC2]: the protein stability index is 5.53 ± 0.25 under setting [1] and 5.45 ± 0.35 under setting [2].

Regarding KDVRRHLVVHTGCKDFLCQFCAQR [PLAGL1], the protein stability index is 3.44 ± 0.08 under setting [1] and 3.55 ± 0.21 under setting [2].

Take QLGLGRGASTFKEEPQTVPEARSR [JUNB]: the protein stability index is, setting by setting: under setting [1], 5.04 ± 0.1; under setting [2], 5.22 ± 0.26.

For the sequence HLNAIRGLPGSFIKEVQKGGPADL [PDZK1], the protein stability index under setting [1] came to 3.56 ± 0.34 and the protein stability index under setting [2] turned out to be 3.99 ± 0.19.

Sequence CLGSLASKLSRKYVKAKKSIDKDE [FAN1] yielded a protein stability index under setting [1] of 2.7 ± 0.16 and a protein stability index under setting [2] of 2.94 ± 0.4.

On to GEEQTQNPYTELLVLKAHHDIVRF [WDR41], for which the protein stability index reads like this: under setting [1], 2.51 ± 0.32; under setting [2], 2.79 ± 0.3.

As for RYQKYGYIGTHEYPHFSHRPSTLQ [OAS1], the protein stability index runs as follows: under setting [1], 2.18 ± 0.14; under setting [2], 2.45 ± 0.15.

DDSGKDKKKKTKKIKEKYIDQEEL [HSP90AB1]: the protein stability index reads like this: under setting [1], 5.39 ± 0.29; under setting [2], 5.37 ± 0.32.

As to SRCRKLVEYFQQSAVAMYMLYEKQ [ZBED1], the protein stability index is 2.44 ± 0.65 under setting [1] and 2.13 ± 0.22 under setting [2].

As to QYSGMLDCARRILAREGVAAFYKG [SLC25A25], the protein stability index is, setting by setting: under setting [1], 2.38 ± 0.34; under setting [2], 2.23 ± 0.055.

On to ENRALQQLLEQKQAYWAQAEDTAA [CBY2], for which the protein stability index is, setting by setting: under setting [1], 4.3 ± 0.21; under setting [2], 4.4 ± 0.21.

Consider QEWSFLPSITRKRRYVASVSLHDR [KLHL12], for which the protein stability index came out at 2.41 ± 0.11 under setting [1] and 2.51 ± 0.33 under setting [2].

Turning to DHPLPEVAHVKHLSASQKALKEKE [COX4I1], the protein stability index was 5.43 ± 0.18 under setting [1] and 5.47 ± 0.17 under setting [2].

RLASYLDKVRALEEANADLEVKIR [KRT16] returned a protein stability index under setting [1] of 2.39 ± 0.26 and a protein stability index under setting [2] of 2.59 ± 0.5.

Take EDDALSDKHGCPAYVSPEILNTTG [TRIB1]: the protein stability index runs as follows: under setting [1], 4.97 ± 0.24; under setting [2], 4.95 ± 0.072.

Regarding SSESSSDSDNSGGGGGGGGGGGGG [ANKRD17], the protein stability index was found to be 5.59 ± 0.27 under setting [1] and 5.7 ± 0.12 under setting [2].

Take EDKENYKKFYEAFSKNLKLGIHED [HSP90AB1]: the protein stability index under setting [1] turned out to be 4.08 ± 0.34 and the protein stability index under setting [2] was 4.22 ± 0.25.

Consider SNDNEERLQVVKLLAKMFGAKDSE [PDS5B], for which the protein stability index is, setting by setting: under setting [1], 3.17 ± 0.3; under setting [2], 3.12 ± 0.4.

Regarding VAWNGPRMGDADYLAAWHRLVLPI [HDAC6], the protein stability index under setting [1] came to 2.52 ± 0.52 and the protein stability index under setting [2] stood at 2.26 ± 0.25.

Turning to SDDNAKLPCFNGRVVSWLVSAEGS [DVL3], the protein stability index by setting is: under setting [1], 3.07 ± 0.19; under setting [2], 3.06 ± 0.26.

The sequence AVGVLLLGLVGYYIFRVANHQKDL [DHCR7] gave a protein stability index under setting [1] of 2.84 ± 0.29 and a protein stability index under setting [2] of 2.79 ± 0.53.

As for SHLSNGLDPVAETAIRQLTEPSGR [C2CD2L], the protein stability index is, setting by setting: under setting [1], 4.34 ± 0.31; under setting [2], 4.58 ± 0.3.

Take ENLAHHLEIDSGVITLDPQTASRS [TRIM15]: the protein stability index under setting [1] worked out at 4.96 ± 0.11 and the protein stability index under setting [2] came to 4.97 ± 0.27.

Sequence KTHSQELMKESLQTGDLLSTFHTI [PLAGL1] yielded a protein stability index under setting [1] of 3.49 ± 0.27 and a protein stability index under setting [2] of 3.64 ± 0.23.

EECTDLQKEGEFSTCFTELQRDFL [OAS1]: the protein stability index under setting [1] worked out at 4.5 ± 0.32 and the protein stability index under setting [2] was 4.52 ± 0.47.

In turn, VCESMKEQLLVLVEWAKYIPAFCE [HNF4A] had a protein stability index under setting [1] of 2.51 ± 0.38 and a protein stability index under setting [2] of 2.34 ± 0.38.

Turning to KDYYPINESLASLPLRVSFCPLSL [CLPTM1], the protein stability index came out at 2.16 ± 0.28 under setting [1] and 2.15 ± 0.096 under setting [2].
